Changes are numbered by the printed parent chain. Names may count otherwise.

The target of experiment [1] is T1, biotinylated human recombinant CD4 (Repligen Inc.) (human, UniProt P01730 26-394, limits assumed, biotinylated (sites not given)).
T1 construct: Probe of the Spot membranes, used at 1 µg/ml; also called biotinylated CD4; CD4 probe
Nature of the experiment: quantified Spot reactivity, membrane probed with biotinylated CD4. How it is done: (§1) The antigenic reactivity of the peptides bound to the cellulose membrane was tested with biotinylated CD4 (1 μg/ml) under conditions that led to the production of a blue precipitate for the reactive spots as described in [Bès, 2001b].

In experiment [2] the target is T1, biotinylated human recombinant CD4 …. Nature of the experiment: Spot peptide on cellulose probed with biotinylated CD4. The method, then:
as §1

For experiment [3] the target is unchanged. Nature of the experiment: Spot peptides on cellulose membrane probed with biotinylated CD4. The method, then:
as §1

In experiment [4] the target is T2, soluble human recombinant CD4 expressed in baculovirus (human, UniProt P01730 26-396, limits assumed).
T2 construct: Coated on plates for the ELISA and covalently immobilised on the sensor for BIAcore; Only called soluble; also called soluble CD4; CD4 expressed in the baculovirus
Briefly: SPR (BIAcore), CD4 immobilised, Exp. 1. How it is done: (§2) The kinetic parameters of the binding of CD4 to the paratope of the Fab fragments of the 13B8.2 antibody were determined by analysis of the surface plasmon resonance by means of a BIAcore analyzer (BIAcore AB, Uppsala, Sweden).
(In general: SPR reads the build-up and loss of mass on a sensor chip optically.)

The target of experiment [5] is T2, soluble human recombinant CD4 expressed …. Nature of the experiment: SPR (BIAcore), CD4 immobilised, Exp. 2. The method, then:
as §2

For experiment [6] the target is unchanged. Nature of the experiment: SPR (BIAcore), CD4 immobilised, Exp. 3. The method, then: as §2
The target of experiment [7] is T3, membranous CD4 (wild human CD4 expressed on cells) (human, UniProt P01730 26-458).
T3 construct: whole, on cells; also called T A2.01/CD4 cells; T AN2.01/CD4 cells
Nature of the experiment: flow cytometry, T A2.01/CD4 cells, Fab at 1 µg/ml, fluorescein-labeled anti-kappa chain antibody. How it is done:
(§3) The binding of the wild or mutant Fabs to the membranous CD4 was evaluated by flow cytometry.
(§4) In order to determine the binding of the fragments to the membranous CD4, T AN2.01 CD4+ cells were analyzed by indirect immunofluorescent labeling and flow cytometry (FIG. 4).
In general terms: Flow cytometry measures light scatter and fluorescence of single cells or particles in a stream.

Experiment [8] has as its target T3, membranous CD4 (wild human CD4 …). Briefly: flow cytometry, T A2.01/CD4 cells, Fab at 10 µg/ml, fluorescein-labeled anti-kappa chain antibody. How it is done: as §3, §4
Experiment [9] has as its target T2, soluble human recombinant CD4 expressed …. Briefly: SPR (BIAcore), CD4 immobilised. How it is done:
as §2

Experiment [10] has the same target. Nature of the experiment: SPR (BIAcore), CD4 immobilised, Exp. 2; Exp. 2. How it is done:
as §2

B1: hexapeptide 49GVIWRS54 of the CDR-H2 region of 13B8.2 (peptide)
peptide: GVIWRS
notes: also called peptide 1; control peptide 1
Regarding B1, the binding result in [1] is on record as “binds”.

B2: alanine analogue of peptide 49GVIWRS54 with Arg53 replaced by Ala (peptide)
peptide: GVIWAS
notes: Spot peptide on cellulose membrane; also called GVIWAS
Regarding B2, the binding result in experiment [2] is recorded as “no binding”.

B3: alanine analogue of peptide 49GVIWRS54 with Gly49 replaced by Ala (peptide)
peptide: AVIWRS
notes: Spot peptide on cellulose membrane; also called AVIWRS
B3: the binding result in experiment [1] was “binds”.

B4: alanine analogue of peptide 49GVIWRS54 with Val50 replaced by Ala (peptide)
peptide: GAIWRS
notes: Spot peptide on cellulose membrane; also called GAIWRS
Regarding B4, in [3], the binding result was “binds”.

B5: alanine analogue of peptide 49GVIWRS54 with Ile51 replaced by Ala (peptide)
peptide: GVAWRS
notes: Spot peptide on cellulose membrane; also called GVAWRS
In the case of B5, the binding result in [1] was “binds”.

B6: alanine analogue of peptide 49GVIWRS54 with Ser54 replaced by Ala (peptide)
peptide: GVIWRA
notes: Spot peptide on cellulose membrane; also called GVIWRA
Take B6: in experiment [2], the binding result is “binds”.

B7: hexapeptide 52WRSGIT57 of the CDR-H2 region of 13B8.2 (peptide)
peptide: WRSGIT
notes: Spot peptide on cellulose membrane; also called peptide 2
For B7, the binding result in experiment [1] is recorded as “binds”.

B8: alanine analogue of peptide 52WRSGIT57 with Ile56 replaced by Ala (dotted bar I56) (peptide)
peptide: WRSGAT
notes: also called WRSGAT
For the molecule B8, the binding result in experiment [1] is listed as “binds”.

B9: alanine analogue of peptide 52WRSGIT57 with Gly55 replaced by Ala (dotted bar G55) (peptide)
peptide: WRSAIT
notes: also called WRSAIT
In the case of B9, the binding result in experiment [1] is listed as “binds”.

B10: alanine analogue of peptide 52WRSGIT57 with Arg53 replaced by Ala (dotted bar R53) (peptide)
peptide: WASGIT
notes: also called WASGIT
For the molecule B10, in [3], the binding result is given as “no binding”.

B11: alanine analogue of peptide 52WRSGIT57 with Thr57 replaced by Ala (dotted bar T57) (peptide)
peptide: WRSGIA
notes: also called WRSGIA
On to B11, for which the binding result in [1] was “binds”.

B12: alanine analogue of peptide 52WRSGIT57 with Ser54 replaced by Ala (dotted bar S54) (peptide)
peptide: WRAGIT
notes: also called WRAGIT
Take B12: the binding result in experiment [1] is “binds”.

B13: alanine analogue of peptide 52WRSGIT57 with Trp52 replaced by Ala (dotted bar W52) (peptide)
peptide: ARSGIT
notes: also called ARSGIT
Consider B13, for which, in experiment [1], the binding result is “binds”.

B14: wild recombinant chimeric Fab fragment of the 13B8.2 anti-CD4 antibody (Fab, V domains shown)
VH: QVQLKQSGPGLVQPSQSLSITCTVSGFSLTTFGVHWVRQSPGKGLEWLGVIWRSGITDYNVPFMSRLSITKDNSKSQVFFKLNSLQPDDTAIYYCAKNDPGTGFAYWGQGTLVTVSA
VL: DIQMTQSPASLSASVGETVTFTCRASENIYSYLAWYQQKQGKSPQLLVHDAKTLAEGVPSRFSGGGSGTQFSLKINTLQPEDFGTYYCQHHYGNPPTFGGGTKLEIK
notes: Chimeric Fab: murine V domains fused to human CH1-γ1 (Fdγ1) and human Cκ, expressed in baculovirus/Sf9 cells, purified on protein G; also called Fabwild 13B8.2; wild Fab
For the molecule B14, the figures for the equilibrium dissociation constant (Kd) in [4], in [5] and in experiment [6] were 28.4 nM, 33.5 nM and 25.6 nM, respectively. Also, the off-rate (koff) amounted to 0.000108 s⁻¹ in experiment [4], 0.000161 s⁻¹ in [5] and 6.4e-05 s⁻¹ in experiment [6]. Also, the association rate constant (kon) in [4] amounted to 3800 M⁻¹ s⁻¹; in experiment [5], 4800 M⁻¹ s⁻¹; in [6], 2500 M⁻¹ s⁻¹. The figures for the “percent of cells under the marker bar of the histogram” value (“percent of cells” below) in [7] and in experiment [8] were 44.7% and 84.8%, respectively.

B15: mutant Fab Y32-L of the 13B8.2 antibody (Fab, V domains shown)
VH: B14 VH
VL: B14 VL with Y32A
notes: Chimeric Fab with human CH1-γ1 and Cκ; baculovirus/Sf9
For B15, in [9], the Kd is 8930 nM and the koff came out at 0.000585 s⁻¹.

B16: mutant Fab F32-H of the 13B8.2 antibody (Fab, V domains shown)
VH: B14 VH with F32A
VL: B14 VL
notes: Chimeric Fab with human CH1-γ1 and Cκ; baculovirus/Sf9; also called F32 mutant Fab
Regarding B16, the results for the Kd in experiment [4], in experiment [5] and in experiment [6] were 13.5 nM, 17 nM and 16.9 nM, respectively. Further, the koff in [4] was found to be 0.000248 s⁻¹; in experiment [5] it was 0.000246 s⁻¹; in experiment [6] it was 0.00025 s⁻¹. The on-rate constant (kon) in experiment [4] stood at 18300 M⁻¹ s⁻¹; in experiment [5] it was 14400 M⁻¹ s⁻¹; in experiment [6] it was 14800 M⁻¹ s⁻¹. In addition, the “percent of cells” value in [8] came to 82.4%.

B17: mutant Fab R38-H of the 13B8.2 antibody (Fab, V domains shown)
VH: B14 VH with R38A
VL: B14 VL
notes: as for B15
Consider B17, for which, in [9], the Kd is 859 nM, the koff was 0.00014 s⁻¹ and the kon stood at 163 M⁻¹ s⁻¹. Also, in [7], the “percent of cells” value is 48%.

B18: mutant Fab W103-H of the 13B8.2 antibody (Fab, V domains shown)
VH: B14 VH with W107A
VL: B14 VL
notes: as for B15
As for B18, in experiment [9], the Kd was 4030 nM, the koff was determined as 0.00112 s⁻¹ and the on-rate (kon) was 278 M⁻¹ s⁻¹. The “percent of cells” value in experiment [8] came to 6.76%.

B19: mutant Fab W36-H of the 13B8.2 antibody (Fab, V domains shown)
VH: B14 VH with W36A
VL: B14 VL
notes: as for B15
For the molecule B19, in experiment [9], the dissociation constant Kd amounted to 15.4 nM, the koff worked out at 0.000271 s⁻¹ and the association rate constant (kon) turned out to be 17600 M⁻¹ s⁻¹. Further, the “percent of cells” value in [8] was 65.5%.

B20: mutant Fab W52-H of the 13B8.2 antibody (Fab, V domains shown)
VH: B14 VH with W52A
VL: B14 VL
notes: as for B15
Take B20: in experiment [9], the Kd turned out to be 3620 nM, the off-rate constant (koff) was 0.000859 s⁻¹ and the on-rate (kon) worked out at 237 M⁻¹ s⁻¹.

B21: control mutant Fab V61-H of the 13B8.2 antibody (Fab, V domains shown)
VH: B14 VH with V61A
VL: B14 VL
notes: Chimeric Fab with human CH1-γ1 and Cκ; baculovirus/Sf9; Control position, not a Spot contributor residue; also called V61-Hcontrol
As for B21, in experiment [4], the Kd was found to be 2 nM, the dissociation rate constant (koff) came to 0.000172 s⁻¹ and the kon was determined as 86800 M⁻¹ s⁻¹. For the same molecule, in experiment [5], the Kd turned out to be 2.9 nM, the off-rate constant (koff) is 0.000324 s⁻¹ and the on-rate (kon) worked out at 112000 M⁻¹ s⁻¹. Besides, the “percent of cells” value in [7] turned out to be 62.9%.

B22: mutant Fab Y36-L of the 13B8.2 antibody (Fab, V domains shown)
VH: B14 VH
VL: B14 VL with Y36A
notes: as for B15
For the molecule B22, in experiment [4], the Kd stood at 25.4 nM, the off-rate constant (koff) turned out to be 0.000651 s⁻¹ and the kon was found to be 25600 M⁻¹ s⁻¹. In experiment [10], the dissociation constant Kd turned out to be 11.4 nM, the off-rate (koff) was 0.00057 s⁻¹ and the association rate constant (kon) turned out to be 50000 M⁻¹ s⁻¹. The “percent of cells” value in experiment [7] was 44.6%.

B23: mutant Fab C92-H of the 13B8.2 antibody (Fab, V domains shown)
VH: B14 VH with C95A
VL: B14 VL
notes: as for B15
As for B23, in experiment [9], the Kd is 3.7 nM, the off-rate constant (koff) amounted to 0.000358 s⁻¹ and the kon was found to be 96100 M⁻¹ s⁻¹. For the same molecule, the “percent of cells” value in experiment [7] was found to be 76.5%.

B24: mutant Fab R53-H of the 13B8.2 antibody (Fab, V domains shown)
VH: B14 VH with R53A
VL: B14 VL
notes: as for B15
As for B24, in experiment [9], the Kd stood at 29200 nM, the koff stood at 0.0105 s⁻¹ and the association rate constant (kon) was found to be 359 M⁻¹ s⁻¹. In [8], the “percent of cells” value worked out at 43.2%.

B25: mutant Fab H35-H of the 13B8.2 antibody (Fab, V domains shown)
VH: B14 VH with H35A
VL: B14 VL
notes: as for B15
With B25, in experiment [9], the Kd was found to be 6280 nM, the koff worked out at 0.00189 s⁻¹ and the kon worked out at 301 M⁻¹ s⁻¹. Moreover, the “percent of cells” value in experiment [8] was determined as 33.6%.

B26: mutant Fab F100K-H of the 13B8.2 antibody (Fab, V domains shown)
VH: B14 VH with F104A
VL: B14 VL
notes: as for B15
Consider B26, for which, in experiment [9], the equilibrium dissociation constant (Kd) was found to be 845 nM, the off-rate constant (koff) was found to be 0.000475 s⁻¹ and the on-rate constant (kon) was 562 M⁻¹ s⁻¹.

As a reminder, the Kd is the constant that tells how readily two partners part at equilibrium. As a reminder, the koff is the rate constant with which the complex falls apart. A word on the kon: it is a measure of how fast the partners come together.

These data come from patent US20050226874A1 (CENTRE NATIONAL DE LA RECHERCHE SCIENTIFIQUE CNRS A …, published 2005).
